The results in this text go back to PMC3195669 (Biologics : Targets & Therapy, 2011).

The series concerns the molecule itself. Put plainly: SDS-PAGE without heat denaturation or reducing agent.

B1: recombinant mouse full-length adiponectin subfractions, unlabeled (natural protein, UniProt Q60994 18-247, looked up)
chain: EDDVTTTEELAPALVPPPKGTCAGWMAGIPGHPGHNGTPGRDGRDGTPGEKGEKGDAGLLGPKGETGDVGMTGAEGPRGFPGTPGRKGEPGEAAYVYRSAFSVGLETRVTVPNVPIRFTKIFYNQQNHYDGSTGKFYCNIPGLYYFSYHITVYMKDVKVSLFKKDKAVLFTYDQYQEKNVDQASGSVLLHLEVGDQVWLQVYGDGDHNGLYADNVNDSTFTGFLLYHDTN
As to B1, the “stoichiometry N” value was 6.
